Reference: patent US20220064248A1, “PHARMACEUTICAL COMPOSITION INCLUDING INSULIN AND GLUCAGON” (HANMl PHARM. CO., LTD, priority 2018, published 2022)
Bridges are numbered along the chain shown (N, C = ends). Where no end group is shown, it is not given here. [ ]: non-standard residue; d: D form. Aib = CC(C)(N)C(=O)O

Molecular target: glucagon receptors (Homo sapiens, UniProt P47871)
Assay: In vitro activity of glucagon analogs relative to native glucagon
Assay type: cell-based
Settings: relative to native glucagon (SEQ ID NO: 1)
Experimental: The glucagon analogs were synthesized with reference to Korean Patent Publication Nos. 10-2016-0082482, 10-2017-003466, and 10-2018-0002544, and pl and in vitro activity thereof were measured.

glucagon receptors, sequence (P47871 26-477): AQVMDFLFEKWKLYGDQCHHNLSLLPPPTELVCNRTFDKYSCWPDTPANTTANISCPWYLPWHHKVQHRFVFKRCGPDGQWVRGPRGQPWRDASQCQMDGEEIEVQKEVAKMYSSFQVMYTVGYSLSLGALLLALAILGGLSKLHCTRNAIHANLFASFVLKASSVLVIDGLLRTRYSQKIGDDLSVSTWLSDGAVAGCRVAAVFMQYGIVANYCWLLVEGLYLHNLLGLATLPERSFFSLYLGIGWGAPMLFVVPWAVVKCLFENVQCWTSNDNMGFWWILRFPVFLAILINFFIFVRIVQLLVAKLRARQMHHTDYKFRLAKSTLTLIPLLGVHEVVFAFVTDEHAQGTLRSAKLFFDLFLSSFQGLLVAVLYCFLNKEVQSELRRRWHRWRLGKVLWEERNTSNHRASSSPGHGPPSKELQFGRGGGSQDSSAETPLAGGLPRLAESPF

| In vitro activity (relative activity to SEQ ID NO: 1, %) [%] | Substance |
| --- | --- |
| 45.2 | YXQGTFCSDYSKYLDERRAKDFVQWLMNT (Y[Aib]QGTFCSDYSKYLDERRAKDFVQWLMNT; lactam 16-20) [SEQ ID NO: 41] |
| 9.9 | YXQGTFTSDCSKYLDERRAKEFVQWLMNT (Y[Aib]QGTFTSDCSKYLDERRAKEFVQWLMNT; lactam 16-20) [SEQ ID NO: 36] |
| 4.2 | YXQGTFTSDYSKYLDCRRAQVFVQWLMRT (Y[Aib]QGTFTSDYSKYLDCRRAQVFVQWLMRT) [SEQ ID NO: 16] |
| <0.1 | YXQGTFTSDYSKYLDSCDAQDFVVWLINT (Y[Aib]QGTFTSDYSKYLDSCDAQDFVVWLINT) [SEQ ID NO: 9] |
| <0.1 | YXQGTFTSDYSKYLDSCDAQDFVQWLINT (Y[Aib]QGTFTSDYSKYLDSCDAQDFVQWLINT) [SEQ ID NO: 8] |
| 4.6 | YXQGTFTSDYSKYLDEKCAKEFVQWLMNT [SEQ ID NO: 11] (Y[Aib]QGTFTSDYSKYLDEKCAKEFVQWLMNT; not fully specified (bridges); also: lactam ring between underlined residues, places not shown) |
| 23.2 | YXQGTFTSDYSKYLDCVRAQDFVQWLMRT (Y[Aib]QGTFTSDYSKYLDCVRAQDFVQWLMRT) [SEQ ID NO: 17] |
| 147.8 | YXQGTFTSDYSKYLDEKRCKEFVQWLMNT (Y[Aib]QGTFTSDYSKYLDEKRCKEFVQWLMNT; lactam 16-20) [SEQ ID NO: 22] |
| 18.1 | YXQGTFTSDYSKYLDCKRAKEFVQWLMNT [SEQ ID NO: 14] (Y[Aib]QGTFTSDYSKYLDCKRAKEFVQWLMNT; not fully specified (bridges); also: lactam ring between underlined residues, places not shown) |
| 0.3 | WXQGTFTSDYSKCLDERRAKDFVQWLMNT (W[Aib]QGTFTSDYSKCLDERRAKDFVQWLMNT; lactam 16-20) [SEQ ID NO: 30] |
| 0.7 | -SQGTFTSDYSKYLDECRAKEFVQWLMNT (lactam 15-19; also: name begins with '-' (N-terminal residue not shown)) [SEQ ID NO: 32] |
| <0.1 | HSQGTFTSDYSKYLDSCDAQDFVQWLMNT (glucagon derivative) [SEQ ID NO: 4] |
| 58.0 | YXQGTFTSDYSKCLDEKRAKEFVQWLMNT (Y[Aib]QGTFTSDYSKCLDEKRAKEFVQWLMNT; lactam 16-20) [SEQ ID NO: 24] |
| <0.1 | YXQGTFTSDYSKYLDSCDADDFVVWLINT (Y[Aib]QGTFTSDYSKYLDSCDADDFVVWLINT) [SEQ ID NO: 10] |
| 56.3 | YXQGTFTSDYSKYLDEKRAKEFVQWLMNTC (Y[Aib]QGTFTSDYSKYLDEKRAKEFVQWLMNTC; lactam 16-20) [SEQ ID NO: 12] |
| 40.8 | YXQGTFVSDYSKYLDERRAKDFVQWLMNTC (Y[Aib]QGTFVSDYSKYLDERRAKDFVQWLMNTC; lactam 16-20) [SEQ ID NO: 40] |
| 37.9 | YXQGTFCSDYSKYLDSRRAQDFVQWLMNT (Y[Aib]QGTFCSDYSKYLDSRRAQDFVQWLMNT) [SEQ ID NO: 42] |
| 12.1 | YXQGTFTSDYSKYLCEKRAKEFVQWLMNT (Y[Aib]QGTFTSDYSKYLCEKRAKEFVQWLMNT; lactam 16-20) [SEQ ID NO: 19] |
| <0.1 | WXQGTFVSDYSKYLDECRAKDFVQWLMNT (W[Aib]QGTFVSDYSKYLDECRAKDFVQWLMNT; lactam 16-20) [SEQ ID NO: 28] |
| 1.1 | YXQGTFTSDYSKYLCEKRAQDFVVWLMNT (Y[Aib]QGTFTSDYSKYLCEKRAQDFVVWLMNT) [SEQ ID NO: 15] |
| 3.7 | YXQGTFVSDCSKYLDERRAKDFVQWLMNT (Y[Aib]QGTFVSDCSKYLDERRAKDFVQWLMNT; lactam 16-20) [SEQ ID NO: 39] |
| 46.9 | YXQGTFTSDYSKYLDEKRAKCFVQWLMNT (Y[Aib]QGTFTSDYSKYLDEKRAKCFVQWLMNT; lactam 16-20) [SEQ ID NO: 25] |

| In vitro activity (relative activity to SEQ ID NO: 1, %) [%] | Substance |
| --- | --- |
| 0.2 | WXQGTFTSDYSKYCDERRAKEFVQWLMNT (W[Aib]QGTFTSDYSKYCDERRAKEFVQWLMNT; lactam 16-20) [SEQ ID NO: 34] |
| 17.7 | YXQGTFTSDYSKYCDERRAKEFVQWLMNT (Y[Aib]QGTFTSDYSKYCDERRAKEFVQWLMNT; lactam 16-20) [SEQ ID NO: 35] |
| 225.5 | YXQGTFTSDYSKYLDERRAKEFVQWLMNTC (Y[Aib]QGTFTSDYSKYLDERRAKEFVQWLMNTC; lactam 16-20) [SEQ ID NO: 37] |
| 0.3 | HSQGTFTSDYSKYLDSCEAQDFVQWLMNT (glucagon derivative) [SEQ ID NO: 5] |
| 61.3 | YXQGTFTSDYSKCLDERRAKDFVQWLMNT (Y[Aib]QGTFTSDYSKCLDERRAKDFVQWLMNT; lactam 16-20) [SEQ ID NO: 29] |
| 93.6 | YXQGTFVSDYSKYLDECRAKDFVQWLMNT (Y[Aib]QGTFVSDYSKYLDECRAKDFVQWLMNT; lactam 16-20) [SEQ ID NO: 27] |
| <0.1 | YXQGTFTSDYSKYLDSRRACDFRLWLMNT (Y[Aib]QGTFTSDYSKYLDSRRACDFRLWLMNT) [SEQ ID NO: 18] |
| 299.7 | YXQGTFTSDYSKYLDECRAKEFVQWLMNT (Y[Aib]QGTFTSDYSKYLDECRAKEFVQWLMNT; lactam 16-20) [SEQ ID NO: 20] |
| 75.4 | YXQGTFTSDYSKYLDSRRAQDFVQWLMNTC (glucagon derivative; (2) Xaa is aminoisobutyric acid (Aib)) [SEQ ID NO: 44] |
| 5.2 | YXQGTFTSDYSCYLDSRRAQDFVQWLMNT (Y[Aib]QGTFTSDYSCYLDSRRAQDFVQWLMNT) [SEQ ID NO: 13] |
| 6.3 | YXQGTFTSDYSKYLDCKRAKEFVQWLMNT (Y[Aib]QGTFTSDYSKYLDCKRAKEFVQWLMNT; lactam 17-21) [SEQ ID NO: 31] |
| 167.3 | YXQGTFCSDYSKYLDERRAKEFVQWLMNT (Y[Aib]QGTFCSDYSKYLDERRAKEFVQWLMNT; lactam 16-20) [SEQ ID NO: 38] |
| <0.1 | HSQGTFTSDYSKYLDSCEADDFVQWLMNT (glucagon derivative) [SEQ ID NO: 6] |
| 6.1 | HSQGTFTSDYSKYLDCERAQDFVQWLMNT (glucagon derivative) [SEQ ID NO: 3] |
| 1.6 | YXQGTFTSDCSKYLDSRRAQDFVQWLMNT (Y[Aib]QGTFTSDCSKYLDSRRAQDFVQWLMNT) [SEQ ID NO: 43] |
| 57.8 | YXQGTFTSDYSKYLDEKCAKEFVQWLMNT [SEQ ID NO: 21] (Y[Aib]QGTFTSDYSKYLDEKCAKEFVQWLMNT; lactam 16-20) |
| 76.8 | YXQGTFTSDYSKYCDEKRAKEFVQWLMNT (Y[Aib]QGTFTSDYSKYCDEKRAKEFVQWLMNT; lactam 16-20) [SEQ ID NO: 23] |
| 108.2 | YXQGTFTSDYSKYLDSRRAQDFVQWLMNT (X non-natural residue; glucagon derivative; (2) Xaa is aminoisobutyric acid (Aib)) [SEQ ID NO: 33] |
| <0.1 | YSQGTFTSDYSKYLDSCEADDFVQWLMNT (glucagon derivative) [SEQ ID NO: 7] |
| 1.0 | WXQGTFTSDYSKYLDECRAKDFVQWLMNT (W[Aib]QGTFTSDYSKYLDECRAKDFVQWLMNT; lactam 16-20) [SEQ ID NO: 26] |
| 0.6 | HSQGTFTSDYSKYLDCDRAQDFVQWLMNT (glucagon derivative) [SEQ ID NO: 2] |
